Test results published in publication PMC5763331.

Biological target: PROTEOLYSIS1 (PRT1) (Arabidopsis thaliana) (UniProt Q8LBL5)
Sequence (Q8LBL5 whole entry): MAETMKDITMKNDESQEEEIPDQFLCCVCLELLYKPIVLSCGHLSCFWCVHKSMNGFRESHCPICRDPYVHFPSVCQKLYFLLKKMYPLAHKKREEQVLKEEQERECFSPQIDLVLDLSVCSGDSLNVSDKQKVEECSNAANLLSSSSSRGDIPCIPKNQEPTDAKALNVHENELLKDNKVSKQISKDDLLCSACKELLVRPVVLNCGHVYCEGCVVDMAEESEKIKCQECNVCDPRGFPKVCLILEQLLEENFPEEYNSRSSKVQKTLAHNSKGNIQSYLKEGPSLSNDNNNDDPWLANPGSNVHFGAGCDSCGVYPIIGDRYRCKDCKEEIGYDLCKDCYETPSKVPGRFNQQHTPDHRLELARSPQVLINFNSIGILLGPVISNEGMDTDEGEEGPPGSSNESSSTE

E2-conjugating enzyme UBC8, sequence (P35131 whole entry): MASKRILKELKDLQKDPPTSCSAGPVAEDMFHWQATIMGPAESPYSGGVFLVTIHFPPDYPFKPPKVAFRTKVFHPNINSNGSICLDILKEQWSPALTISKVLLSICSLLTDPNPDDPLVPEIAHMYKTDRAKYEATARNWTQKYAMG

Michaelis-Menten constant (K M) of substrate ubiquitination by PRT1 at different E2 concentrations (fluorescence polarization of the F-eK-Flv-NBD substrate, UBC8 up to 2 μM): 0.08 µM
Substance: E2-conjugating enzyme UBC8 (from UniProt P35131 1-148)
